Experimental findings from article PMC6289461, “Mek1 coordinates meiotic progression with DNA break repair by directly phosphorylating and inhibiting the yeast pachytene exit regulator Ndt80” are described below.

This series deals with T1, 6xHis-Ndt80 5D DBD (Saccharomyces cerevisiae, UniProt P38830 1-340, S24D;S205D;T211D;S327D;S329D).
T1 sequence: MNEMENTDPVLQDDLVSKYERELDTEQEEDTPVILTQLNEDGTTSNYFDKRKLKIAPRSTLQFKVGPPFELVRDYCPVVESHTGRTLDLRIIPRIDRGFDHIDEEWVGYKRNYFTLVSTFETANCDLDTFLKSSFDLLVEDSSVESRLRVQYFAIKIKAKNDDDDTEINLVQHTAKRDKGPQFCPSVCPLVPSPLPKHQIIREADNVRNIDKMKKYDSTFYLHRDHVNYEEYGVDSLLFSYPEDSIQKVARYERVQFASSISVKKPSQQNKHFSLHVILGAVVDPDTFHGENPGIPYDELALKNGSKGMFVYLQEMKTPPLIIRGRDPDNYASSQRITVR
Put plainly: EMSA; 50 nM DBD, 50 nM duplex; EMSA: 10 mM Tris-HCl pH 7.5, 40 mM NaCl, 4 mM MgCl2, 6% glycerol, 10 mg/ml BSA, 10 ug/ml sonicated salmon sperm DNA; 20 ul, room temperature, 30 min; 6% PAGE in 0.5X TBE. The note with it: protein: recombinant, tags: N-terminal 6xHis (pET-28a), blunt. On the technique in general: A gel shift assay detects complexes by their altered migration in electrophoresis.

B1: Cy3-MSE (SPS4 MSE duplex) (dsDNA)
DNA 1: ATTGACGCGCGCCACAAAAACGTATCATT
DNA 2: AATGATACGTTTTTGTGGCGCGCGTCAAT
For the molecule B1, the binding result (label: 5' Cy3 on strand 1) was “no binding”.

B2: Cy5-Scr duplex (dsDNA)
DNA 1: ATTGACGCGGCTTCATCTCACGTATCATT
DNA 2: AATGATACGTGAGATGAAGCCGCGTCAAT
Turning to B2, the binding result (label: 5' Cy5 on strand 1) is given as “no binding”.
